For data set [1], the target named is synthetic fluorescent peptide carrying the LPXTG sorting motif of PI-1 backbone protein.
Data set [2] concerns the target synthetic fluorescent peptide carrying the LPXTG sorting motif of PI-1 minor ancillary protein.
The target in data set [3] is T1, backbone protein of GBS PI-2b (Spb1) expressed from a complementation vector in GBS strain 515Δ2a.
T1 chain: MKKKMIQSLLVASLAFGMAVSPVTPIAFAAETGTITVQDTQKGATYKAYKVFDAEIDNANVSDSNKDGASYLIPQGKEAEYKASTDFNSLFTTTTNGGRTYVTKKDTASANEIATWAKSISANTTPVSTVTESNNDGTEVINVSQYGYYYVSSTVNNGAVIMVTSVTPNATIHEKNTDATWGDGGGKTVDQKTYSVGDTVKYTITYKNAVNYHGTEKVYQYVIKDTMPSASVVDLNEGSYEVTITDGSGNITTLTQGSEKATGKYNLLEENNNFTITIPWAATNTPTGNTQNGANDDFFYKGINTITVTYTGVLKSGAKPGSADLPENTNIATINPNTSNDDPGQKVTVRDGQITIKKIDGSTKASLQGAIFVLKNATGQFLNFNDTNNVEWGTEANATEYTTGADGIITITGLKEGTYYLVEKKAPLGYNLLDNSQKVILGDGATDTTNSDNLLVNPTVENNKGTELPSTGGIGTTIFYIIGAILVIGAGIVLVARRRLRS

The target of data set [4] is GFP-… (EGFP from pSpeedET with … added at the C-terminus).
In data set [5] the target is T2, backbone protein PI-1 of GBS (GBS 80).
T2 chain: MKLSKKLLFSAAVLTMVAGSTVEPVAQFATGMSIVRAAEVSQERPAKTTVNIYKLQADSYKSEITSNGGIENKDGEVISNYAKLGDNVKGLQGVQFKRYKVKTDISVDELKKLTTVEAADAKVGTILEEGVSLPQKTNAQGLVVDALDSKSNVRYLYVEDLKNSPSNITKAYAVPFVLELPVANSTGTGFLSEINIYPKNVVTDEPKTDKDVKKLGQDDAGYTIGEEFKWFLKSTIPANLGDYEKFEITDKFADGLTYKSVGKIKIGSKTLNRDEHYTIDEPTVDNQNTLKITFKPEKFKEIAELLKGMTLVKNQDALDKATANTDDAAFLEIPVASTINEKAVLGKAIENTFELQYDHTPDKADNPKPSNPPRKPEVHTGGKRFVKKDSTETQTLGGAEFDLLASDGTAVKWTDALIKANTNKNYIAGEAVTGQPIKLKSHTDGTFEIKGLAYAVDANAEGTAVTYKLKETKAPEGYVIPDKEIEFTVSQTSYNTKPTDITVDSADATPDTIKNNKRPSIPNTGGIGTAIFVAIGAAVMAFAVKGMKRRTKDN

For data set [6], the target named is pilus protein from Streptococcus pneumoniae (RrgB).
The target in data set [7] is T3, recombinant BP-2a (strain 515) lacking the C-terminal IPQTG sorting signal, BP 30-640.
T3 chain: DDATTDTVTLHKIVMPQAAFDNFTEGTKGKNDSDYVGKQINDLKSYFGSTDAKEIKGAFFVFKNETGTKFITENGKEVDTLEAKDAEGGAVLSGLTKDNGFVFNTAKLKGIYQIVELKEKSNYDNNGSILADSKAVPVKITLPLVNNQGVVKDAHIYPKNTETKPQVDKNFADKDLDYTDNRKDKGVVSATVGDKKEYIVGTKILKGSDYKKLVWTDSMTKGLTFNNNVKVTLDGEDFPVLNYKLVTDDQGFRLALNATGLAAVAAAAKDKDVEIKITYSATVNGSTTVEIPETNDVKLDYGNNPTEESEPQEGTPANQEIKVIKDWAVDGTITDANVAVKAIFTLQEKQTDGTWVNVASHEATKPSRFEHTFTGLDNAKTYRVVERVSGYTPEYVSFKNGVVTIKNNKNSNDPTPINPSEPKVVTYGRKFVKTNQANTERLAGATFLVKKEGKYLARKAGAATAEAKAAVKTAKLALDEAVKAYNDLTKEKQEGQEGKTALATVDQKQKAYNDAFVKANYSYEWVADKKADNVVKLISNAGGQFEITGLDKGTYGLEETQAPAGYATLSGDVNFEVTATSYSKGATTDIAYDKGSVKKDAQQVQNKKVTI

The target in data set [8] is recombinant BP-2a (strain 515) with Lys189 replaced by alanine.
Data set [9] concerns the target recombinant ancillary protein 1 of GBS pilus 2a (AP1-2a).
Data set [10] addresses recombinant ancillary protein 2 of GBS pilus 2a (AP2-2a).
Data set [11] deals with T4, recombinant backbone protein of GBS pilus 2a (BP-2a, GBS59), strain 515, BP 30-649.
T4 chain: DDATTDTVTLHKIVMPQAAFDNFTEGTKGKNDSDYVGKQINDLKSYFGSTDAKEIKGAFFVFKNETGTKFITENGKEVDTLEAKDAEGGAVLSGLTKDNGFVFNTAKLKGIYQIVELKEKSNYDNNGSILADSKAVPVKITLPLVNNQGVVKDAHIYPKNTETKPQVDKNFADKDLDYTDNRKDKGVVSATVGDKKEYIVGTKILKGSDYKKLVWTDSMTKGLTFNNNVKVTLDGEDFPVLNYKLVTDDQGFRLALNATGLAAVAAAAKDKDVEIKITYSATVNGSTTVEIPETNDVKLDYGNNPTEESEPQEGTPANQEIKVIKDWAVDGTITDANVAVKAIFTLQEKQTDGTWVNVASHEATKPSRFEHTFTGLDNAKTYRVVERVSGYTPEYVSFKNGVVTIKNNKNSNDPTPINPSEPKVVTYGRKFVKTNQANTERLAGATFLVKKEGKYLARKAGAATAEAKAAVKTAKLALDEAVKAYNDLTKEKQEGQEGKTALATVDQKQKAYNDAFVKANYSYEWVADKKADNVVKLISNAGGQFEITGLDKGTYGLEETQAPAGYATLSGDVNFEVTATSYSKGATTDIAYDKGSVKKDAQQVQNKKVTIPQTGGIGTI

Where a chain is given by its changes, count along the chain named.

B1: recombinant PI-2b SrtC1 (full-length, strain COH1) in fusion with a His-MBP-tag (protein)
chain: MAYPSLANYWNSFHQSRAIMDYQDRVTHMDENDYKKIINRAKEYNKQFKTSGMKWHMTSQERLDYNSQLAIDKTGNMGYISIPKINIKLPLYHGTSEKVLQTSIGHLEGSSLPIGGDSTHSILSGHRGLPSSRLFSDLDKLKVGDHWTVSILNETYTYQVDQIRTVKPDDLRDLQIVKGKDYQTLVTCTPYGVNTHRLLVRGHRVPNDNGNALVVAEAIQIEPIYIAPFIAIFLTLILLLISLEVTRRARQRKKILKQAMRKEENNDL
With B1, the “FRET assay, cleavage of fluorescent peptide” value in [1] is “The PI-2b SrtC1 and SrtC2 enzymes are able to cleave the fluorescent peptides”; in [2], “The PI-2b SrtC1 and SrtC2 enzymes are able to cleave the fluorescent peptides”.

B2: PI-2b SrtC1 expressed from a complementation vector in GBS strain 515Δ2a (protein)
chain: B1 chain
On to B2, for which, in [3], the “pili polymerisation in complemented GBS 515Δ2a (western blot)” value was “transfection with BP and SrtC1 resulted in the formation of high molecular weight polymers”.

B3: GBS sortase C1 of PI-2a lid mutant SrtC1Y86A (protein)
chain: ESNNQTQDFERAAKKLSQKEINRRMALAQAYNDSLNNVHLEDPAEKKRIQKGIAEYARMLEVSEKIGIISVPKIGQKLPIFAGSSQEVLSKGAGHLEGTSLPIGGNSTHTVITAHSGIPDKELFSNLKKLKKGDKFYIQNIKETIAYQVDQIKVVTPDNFSDLLVVPGHDYATLLTCTPIMVNTHRLLVRGHRIPYKGPIDEKLIKDGHLNTIYRYLFYISLVIIAWLLWLIKRQRQKNRLSSVRKGIES
Regarding B3, the “in vitro polymerization reaction” value in [4] was “the SrtC1Y86A mutant was able to polymerise GFP-IPQTG”. The “in vitro polymerization (SDS-PAGE)” value in [5] and in data set [6] was “FIG. 7 shows that mutant sortase enzymes polymerize pilus proteins from a variety of gram positive bacteria” in each case. Also, the “in vitro polymerization (HMW polymers on SDS-PAGE)” value was “HMW polymers could not be detected” in data set [7] and “HMW polymers could be observed” in data set [8]. Moreover, the “in vitro polymerization (HMW structures on SDS-PAGE)” value in data set [9] and in data set [10] was “some HMW structures were formed” each time. Also, the “in vitro polymerization (high-molecular-weight bands on SDS-PAGE)” value in data set [11] was “The typical pili pattern of bands with molecular weights above 260 kDa, visible by SDS-page, could be generated when monomeric r-BP was incubated with rSrtC1Y86A”.

B4: wild-type GBS sortase C1 of PI-2a, recombinant SrtC1 43-292 (protein)
chain: B3 chain with A44Y
Consider B4, for which, in data set [11], the “in vitro polymerization (high-molecular-weight bands on SDS-PAGE)” value is given as “showed no formation of high molecular weight bands that could represent pilus polymers”.

B5: recombinant PI-2b SrtC2 (full-length, strain COH1) in fusion with a His-MBP-tag (protein)
chain: MIRRYSANFLAILGIILVSSGIYWGWYNINQAHQADLTSQHIVKVLDKSITHQVKGSENGELPVKKLDKTDYLGTLDIPNLKLHLPVAANYSFEQLSKTPTRYYGSYLTNNMVICAHNFPYHFDALKNVDMGTDVYFTTTTGQIYHYKISNREIIEPTAIEKVYKTATSDNDWDLSLFTCTKAGVARVLVRCQLIDVKN
For the protein B5, the “FRET assay, cleavage of fluorescent peptide” value was “The PI-2b SrtC1 and SrtC2 enzymes are able to cleave the fluorescent peptides” in data set [1]; “The PI-2b SrtC1 and SrtC2 enzymes are able to cleave the fluorescent peptides” in data set [2].

The record behind these values is patent publication US20150273042.
